In publication PMC8834691, “Deletion of Specific Conserved Motifs from the N-Terminal Domain of αB-Crystallin Results in the Activation of Chaperone Functions” (International Journal of Molecular Sciences, 2022):

Biological target: the molecule itself
Assay: SEC-MALS; 0.1 mg protein in 0.25 mL phosphate buffer, incubated at 37 °C for 1 h; TSK G5000PWXL column, 0.75 mL/min; subunits per oligomer = oligomeric mass divided by subunit mass

B1: wild-type αB-crystallin (natural protein, human, UniProt P02511 1-175, looked up)
chain: MDIAIHHPWIRRPFFPFHSPSRLFDQFFGEHLLESDLFPTSTSLSPFYLRPPSFLRAPSWFDTGLSEMRLEKDRFSVNLDVKHFSPEELKVKVLGDVIEVHGKHEERQDEHGFISREFHRKYRIPADVDPLTITSSLSSDGVLTVNGPRKQVSGPERTIPITREEKPAVTAAPKK
notes: αB-crystallin, human, wild type, recombinant; called full-length αB-WT; Polydisperse homo-oligomer (average molar mass 558 kDa by MALS); also called αB-WT; WT-αB; source: E. coli BL21(DE3) pLysS, purified (45% ammonium sulfate precipitation, Superdex G200 gel filtration)
B1: binds.

B2: αB-crystallin with residues 54–61 deleted (natural protein, human, UniProt P02511 1-175, looked up)
chain: MDIAIHHPWIRRPFFPFHSPSRLFDQFFGEHLLESDLFPTSTSLSPFYLRPPSDTGLSEMRLEKDRFSVNLDVKHFSPEELKVKVLGDVIEVHGKHEERQDEHGFISREFHRKYRIPADVDPLTITSSLSSDGVLTVNGPRKQVSGPERTIPITREEKPAVTAAPKK
notes: Polydisperse homo-oligomer (average molar mass 262 kDa by MALS); also called αBΔ54–61; αB∆54–61; source: E. coli BL21(DE3) pLysS, purified (45% ammonium sulfate precipitation, Superdex G200 gel filtration)
B2: binds.

B3: αB-crystallin with residues 21–28 and 54–61 deleted (natural protein, human, UniProt P02511 1-175, looked up)
chain: MDIAIHHPWIRRPFFPFHSPGEHLLESDLFPTSTSLSPFYLRPPSDTGLSEMRLEKDRFSVNLDVKHFSPEELKVKVLGDVIEVHGKHEERQDEHGFISREFHRKYRIPADVDPLTITSSLSSDGVLTVNGPRKQVSGPERTIPITREEKPAVTAAPKK
notes: Gene from GenScript in pET23a(+), without the C-terminal His-tag; the in-frame T7 tag was removed by PCR; Small homo-oligomer, average molar mass 85 kDa, on average close to four subunits; also called αBΔ21–28, Δ54–61; αB∆21–28, ∆54–61; source: E. coli BL21(DE3) pLysS, purified (45% ammonium sulfate precipitation, Superdex G200 gel filtration)
For B3, the “stoichiometry N” value was about 4 subunits per oligomer.
